The target in the experiment is BamD_(R49C) (E. coli) (UniProt P0AC02). Briefly: cross-linking.

^MBP−76EspP_(D1218C) gave a percent crosslinked (plateau after oxidation with 4-DPS) of 40% and a percent crosslinked spontaneously (Ox-, no oxidant) of 10%.
